B1: MLH1 (parent)
chain: YNIATRRKALKNPSEEYGKILEVV

Variants of: B1
Assay: protein stability index of a GFP-peptide fusion (GPS, HEK-293T) (PSI 1-6); higher = more stable
Conditions: c terminus: a fixed tail appended
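Further: lentivirally expressed fusions sorted by FACS into six bins by GFP to DsRed ratio, PSI derived from sequencing read proportions per bin multiplied by bin number.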

| Variant | protein stability index |
| --- | --- |
| YNIATRRKALKNPSEEYEKILEVV | 3.29 |
| YNIATRRKALKNPSEEYRKILEVV | 2.4 |
| YNIATRRKALKNPSEEYYKILEVV | 2.34 |
| YNIATRRKALKNPSEEYIKILEVV | 2.16 |
| YNIATRRKALKNPSEEYCKILEVV | 2.5 |
| YNIATRRKALKNPSEEYLKILEVV | 2.15 |
| YNIATRRKALKNPSEEYWKILEVV | 1.46 |
| YNIATRRKALKNPSEEYFKILEVV | 2.16 |
| YNIATRRKALKNPSEEYKKILEVV | 2.97 |
| YNIATRRKALKNPSEEYTKILEVV | 2.19 |
| YNIATRRKALKNPSEEYVKILEVV | 1.95 |
| YNIATRRKALKNPSEEYAKILEVV | 2.21 |
| YNIATRRKALKNPSEEYPKILEVV | 3.03 |
| YNIATRRKALKNPSEEYNKILEVV | 3.13 |
| YNIATRRKALKNPSEEYDKILEVV | 3.15 |
| YNIATRRKALKNPSEEYQKILEVV | 2.7 |
| YNIATRRKALKNPSERYGKILEVV | 2.5 |
| YNIATRRKALKNPSEYYGKILEVV | 1.88 |
| YNIATRRKALKNPSEKYGKILEVV | 2.1 |
| YNIATRRKALKNPSECYGKILEVV | 1.85 |
| YNIATRRKALKNPSEGYGKILEVV | 2.89 |
| YNIATRRKALKNPSEAYGKILEVV | 2.37 |
| YNIATRRKALKNPSEPYGKILEVV | 2.17 |
| YNIATRRKALKNPSEDYGKILEVV | 2.75 |

| Variant | protein stability index |
| --- | --- |
| YNIATRRKALKNPSEMYGKILEVV | 2.15 |
| YNIATRRKALKNPSESYGKILEVV | 2.71 |
| YNIATRRKALKNPSEVYGKILEVV | 2.49 |
| YNIATRRKALKNPSEFYGKILEVV | 1.62 |
| YNIATRRKALKNPSELYGKILEVV | 1.99 |
| YNIATRRKALKNPSEEWGKILEVV | 2.66 |
| YNIATRRKALKNPSEEVGKILEVV | 3.16 |
| YNIATRRKALKNPSEETGKILEVV | 3.72 |
| YNIATRRKALKNPSEEIGKILEVV | 2.95 |
| YNIATRRKALKNPSEEMGKILEVV | 3.11 |
| YNIATRRKALKNPSEEEGKILEVV | 4.04 |
| YNIATRRKALKNPSEEAGKILEVV | 3.52 |
| YNIATRRKALKNPSEEHGKILEVV | 3.53 |
| YNIATRRKALKNPSEELGKILEVV | 2.63 |
| YNIATRRKALKNPSEENGKILEVV | 4.08 |
| YNIATRRKALKNPSEEQGKILEVV | 3.97 |
| YNIATRRKALKNPSEECGKILEVV | 3.05 |
| YNIATRRKALKNPSEEPGKILEVV | 4.17 |
| YNIATRRKALKNPSEESGKILEVV | 3.75 |
| YNIATRRKALKNPSEERGKILEVV | 3.57 |
| YNIATRRKALKNPSEEKGKILEVV | 3.37 |
| YNIATRRKALKNPSEEDGKILEVV | 4.3 |
| YNIATRRKALKNPSEEYGKINEVV | 4.33 |
| YNIATRRKALKNPSEEYGKIGEVV | 3.52 |

| Variant | protein stability index |
| --- | --- |
| YNIATRRKALKNPSEEYGKIQEVV | 3.8 |
| YNIATRRKALKNPSEEYGKIHEVV | 3.61 |
| YNIATRRKALKNPSEEYGKIDEVV | 4.42 |
| YNIATRRKALKNPSEEYGKIIEVV | 2.17 |
| YNIATRRKALKNPSEEYGKICEVV | 4.26 |
| YNIATRRKALKNPSEEYGKIAEVV | 3.69 |
| YNIATRRKALKNPSEEYGKIEEVV | 4.02 |
| YNIATRRKALKNPSEEYGKSLEVV | 4.11 |
| YNIATRRKALKNPSEEYGKVLEVV | 4.05 |
| YNIATRRKALKNPSEEYGKYLEVV | 3.18 |
| YNIATRRKALKNPSEEYGKDLEVV | 4.34 |
| YNIATRRKALKNPSEEYGKGLEVV | 3.52 |
| YNIATRRKALKNPSEEYGKFLEVV | 2.39 |
| YNIATRRKALKNPSEEYGKMLEVV | 3.13 |
| YNIATRRKALKNPSEEYGKWLEVV | 2.82 |
| YNIATRRKALKNPSEEYGKALEVV | 3.46 |
| YNIATRRKALKNPSEEYGKNLEVV | 3.54 |
| YNIATRRKALKNPSEEYGKTLEVV | 3.62 |
| YNIATRRKALKNPSEEYGKHLEVV | 3.59 |
| YNIATRRKALKNPSEEYGKCLEVV | 3.89 |
| YNIATRRKALKNPSEEYGKRLEVV | 3.6 |
| YNIATRRKALKNPSEEYGKQLEVV | 3.8 |
| YNIATRRKALKNPSEEYGKELEVV | 3.54 |
| YNIATRRKALKNPSEEYGKPLEVV | 3.3 |

| Variant | protein stability index |
| --- | --- |
| YNIATRRKALKNPSEEYGMILEVV | 2.51 |
| YNIATRRKALKNPSEEYGVILEVV | 1.74 |
| YNIATRRKALKNPSEEYGIILEVV | 1.8 |
| YNIATRRKALKNPSEEYGNILEVV | 3.29 |
| YNIATRRKALKNPSEEYGAILEVV | 2.5 |
| YNIATRRKALKNPSEEYGHILEVV | 2.42 |
| YNIATRRKALKNPSEEYGLILEVV | 1.63 |
| YNIATRRKALKNPSEEYGEILEVV | 3.37 |
| YNIATRRKALKNPSEEYGWILEVV | 1.65 |
| YNIATRRKALKNPSEEYGCILEVV | 1.8 |
| YNIATRRKALKNPSREYGKILEVV | 2.46 |
| YNIATRRKALKNPSPEYGKILEVV | 2.21 |
| YNIATRRKALKNPSLEYGKILEVV | 1.99 |
| YNIATRRKALKNPSSEYGKILEVV | 2.49 |
| YNIATRRKALKNPSIEYGKILEVV | 2.46 |
| YNIATRRKALKNPSWEYGKILEVV | 1.78 |
| YNIATRRKALKNPSMEYGKILEVV | 2.54 |
| YNIATRRKALKNPSQEYGKILEVV | 2.15 |
| YNIATRRKALKNPSVEYGKILEVV | 1.85 |
| YNIATRRKALKNPSKEYGKILEVV | 2.06 |
| YNIATRRKALKNPSYEYGKILEVV | 2 |
| YNIATRRKALKNPSNEYGKILEVV | 2.43 |
